In paper doi:10.1101/212233 (bioRxiv, 2017):

Target: the molecule itself
Assay: cryo-EM structure

Row | Protein | binding result
1 | DARP14 subunit B (unfused cage subunit B) (other) MPHLVIEATANLRLETSPGELLEQANKALFASGQFGEADIKSRFVTLEAYRQGTAAVERAYLHACLSILDGRDIATRTLLGASLCAVLAEAVAGGGEEGVQVSVEVREMERLSYAKRVVARQR | binds
2 | DARP14 subunit A (cage subunit A fused to the DARPin by a continuous alpha helix) (other) MRITTKVGDKGSTRLFGGEEVWKDSPIIEANGTLDELTSFIGEAKHYVDEEMKGILEEIQNDIYKIMGEIGSKGKIEGISEERIAWLLKLILRYMEMVNLKSFVLPGGTLESAKLDVCRTIARRALRKVLTVTREFGIGAEAAAYLLALSDLLFLLARVIEIELGKKLLEAARAGQDDEVRILMANGADVNAHDDQGSTPLHLAAWIGHPEIVEVLLKHGADVNARDTDGWTPLHLAADNGHLEIVEVLLKYGADVNAQDAYGLTPLHLAADRGHLEIVEVLLKHGADVNAQDKFGKTAFDISIDNGNEDLAEILQKLN | binds
